Measured values as given in patent US20240368617A1, “NPR1 VARIANT TO ENHANCE PLANT RESISTANCE TO BIOTIC AND ABIOTIC STRESSES AND METHOD THEREOF” (Duke University, published 2024).

How the values were obtained:
Assay in all cases: EMSA
NPR1 = NPR1 (Arabidopsis thaliana, UniProt P93002 SEQ:1-593); conditions: tags: His10-MBP (PreScission site) N-terminal, C-terminal Strep tag; E. coli; chain copies: 2 (stated); label: 6-FAM
Procedure: (§1) The npr1(dim) mutant (L49D/F53D/V56D/V83K) was cloned into the pTrcHis vector (Thermo Fisher Scientific) as a His10-MBP fusion protein containing a PreScission protease site following MBP and a C-terminal Strep tag, and was expressed and purified similarly to the WT NPR 1 protein. Purified TGA3 (Asn87-Thr384) at a concentration of 0.6 μM and WT NPR1 or the npr1(dim) mutant at a concentration of 8 μM were used in the EMSA with the 6-fluorescein (6-FAM)-labelled oligonucleotide probes (200 nM) containing the LS5 and LS7 as-I cis-elements of the SA-responsive PRI gene promoter (LS5/LS7, 6-FAM-C-ggg[…]ggg) or DNA sequences with the two as-1 regions replaced with adenosines (LS5/LS7, 6-FAM-C-ggg[…]ggg), with the LS7 as-1 element replaced with adenosines (LS5/LS7, 6-FAM-C-ggg[…]-GAggg) or with the LS5 as-1 element replaced with adenosines (LS5/LS7, 6-FAM-C-ggg[…]ggg) as well as their complementary oligonucleotides (Integrated DNA Technologies). The uppercase bases indicate the LS5/LS7 sequence; the lowercase bases indicate overhangs outside the LS5/LS7 sequence; and bases replaced with adenosines are indicated with A's in the small capital font. Pairs of complementary DNA strands were annealed before the binding reaction. For each binding reaction, the desired protein combination was mixed with the target DNA probe together with 30 ng/μL of poly (dI-dC) (non-specific competitor, Thermo Fisher Scientific) in a binding buffer containing 20 mM HEPES (pH 8.0), 300 mM NaCl, 10% glycerol, 1 mM DTT and 0.2 mM SA. […] After electrophoresis, the gel was scanned with the Typhoon FLA 7000 imager (GE Healthcare).

TGA3 (Asn87-Thr384) = molecular target: T1, TGA3 (Asn87-Thr384) (Arabidopsis thaliana, UniProt Q39234 Q39234:87-384); conditions: tags: His10-MBP (PreScission site) N-terminal, C-terminal tandem Flag-HA; AT1G22070; E. coli; label: 6-FAM
T1 sequence: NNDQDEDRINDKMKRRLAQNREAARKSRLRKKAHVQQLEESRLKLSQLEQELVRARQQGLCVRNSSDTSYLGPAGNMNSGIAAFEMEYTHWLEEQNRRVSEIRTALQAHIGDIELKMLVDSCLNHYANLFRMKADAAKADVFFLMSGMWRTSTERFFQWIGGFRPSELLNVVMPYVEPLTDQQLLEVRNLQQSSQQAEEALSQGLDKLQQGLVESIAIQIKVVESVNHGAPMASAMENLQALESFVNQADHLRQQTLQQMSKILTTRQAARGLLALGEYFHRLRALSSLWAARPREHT
Procedure: as §1

[1] = molecular target: TGA3 (Asn87-Thr384) + NPR1 complex (Arabidopsis thaliana, UniProt Q39234;P93002 Q39234:87-384,P93002:1-593); conditions: tags: TGA3-Flag-HA; NPR1-Strep; chain copies: TGA3 dimer x2 + NPR1 dimer (stated); label: 6-FAM
Procedure: as §1

B1: PR1 promoter LS5/LS7 (dsDNA)
DNA 1: GGGCTATGACGTAAGTAAAATAGTGACGTAGAGAGGG
DNA 2: CCCTCTCTACGTCACTATTTTACTTACGTCATAGCCC
binding result (NPR1): no binding | binding result (TGA3 (Asn87-Thr384)): binds | binding result [1]: binds
